The series is described as follows: yeast display, Sf9 membrane polyspecificity reagent, FACS + sequencing; frameworks hold sequencing errors. The procedure, abridged:
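Nanobodies from a synthetic yeast display library (Saccharomyces cerevisiae BJ5465), induced 36–48 hours with galactose, were stained 1 hour at 4 °C with 10% biotinylated, detergent-solubilized Sf9 membrane reagent, enriched on streptavidin microbeads, then FACS-sorted. Anti-HA (expression) and streptavidin (reagent binding) fluorescence set low and high (top ~1%) gates. Polyreactivity labels come from the gate of origin. Genes were colony-PCR amplified, MiSeq 2 × 250 sequenced and filtered by CDR length.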
Take “QVQLVESGGGLVQAGGSLRLSCAASGSTFRYNAMGWYRQAPGKERELVAGITSSGGTYADSVKGRFTISRDNAKNTVSLQMNSLKPEDTAVYSCAAEYNWYDYWGQGTQVTVSS”: the “polyreactivity (PSR sort gate)” value is given as “low polyreactivity”.

Regarding “QVQLVESGGGLVQAGGSLRLSCAASGSTFRYNAMGWYRQAPGKVRELVAAIDKRGDSTYADSVKGRFTISRDNAKNTVYLQMNSLKPEDTAVYYCAADSDSKYNYGFLWDTYEYWGQGTQVTVSS”, the “polyreactivity (PSR sort gate)” value is recorded as “low polyreactivity”.

Regarding “QVQLVESGGGLVQAGGSLRLSCAASGSTFRYNAMGWYRQAPGKVRQLVAAIDKRGDSTYADSVKGRFTISRDNAKNTVYLQMNSLKPEDTAVYYCAADSDSKYNYGFLWDTYEYWGQGTQVTVSS”, the “polyreactivity (PSR sort gate)” value is listed as “low polyreactivity”.

For “QVQLVESGGGLVQAGGSLRLSCAASGSTFRYNVMGWYRQAPGKERELVATISYSGGSTNYADSVKGRFTISRDNAKNTDYLQMNSLKPEDTAVYYCAARYLYPFYRYWWYDYWGQGTQVTVSS”, the “polyreactivity (PSR sort gate)” value is reported as “high polyreactivity”.

Turning to “QVQLVESGGGLVQAGGSLRLSCAASGSTFRYYALGWYRQAPGKERELVAAINRSGGSTYYADSVKGRFTISRDNAKNTVDLQMNSLKQEETAVYYCAAPWARHYSNPDDYWGQGTQVTVSS”, the “polyreactivity (PSR sort gate)” value was “high polyreactivity”.

In the case of “QVQLVESGGGLVQAGGSLRLSCAASGSTFRYYALGWYRQAPGKERELVAAISTSGGRTYYADSVKGRFTISRDNAKNTVYLQMNSLKPEDTAVYYCNARESRGYAYQTWKYYYWGQGTQVTVSS”, the “polyreactivity (PSR sort gate)” value was “high polyreactivity”.

In the case of “QVQLVESGGGLVQAGGSLRLSCAASGSTFRYYAMGWYRPAPGKERELVAAINSSGGSTYYADSVKGRFTISRDNAKNTVYLQMNSLKPEDTAVYYCATVYAYTGWLTNPREYSRYDYWGQGTQVTVSS”, the “polyreactivity (PSR sort gate)” value is “low polyreactivity”.

Turning to “QVQLVESGGGLVQAGGSLRLSCAASGSTFRYYAMGWYRQAPGEEREFVASISSTGTSRYYADSVKGRFTISRDNAKNTVYLQMNSLKPEDTAVYYCAARYISYYGYNHWGQGTQVTVSS”, the “polyreactivity (PSR sort gate)” value was “high polyreactivity”.

Regarding “QVQLVESGGGLVQAGGSLRLSCAASGSTFRYYAMGWYRQAPGKERELVAAISGSGGSTYYADSVKGRFTISRDNAKNTVYFQMNSLKPEDTAVYYCNKVYARLVLSYDSWGQGTQVTVSS”, the “polyreactivity (PSR sort gate)” value is on record as “high polyreactivity”.

As for “QVQLVESGGGLVQAGGSLRLSCAASGSTFRYYAMGWYRQAPGKERELVAAISSSGGSTYYADSVKGRFTISRDNAKNTVYLQLNSLKPEDTAVYYCNRGVVYRTGRFDYWGQVTQVTVSS”, the “polyreactivity (PSR sort gate)” value was “high polyreactivity”.

In the case of “QVQLVESGGGLVQAGGSLRLSCAASGSTFRYYAMGWYRQAPGKERELVAAITSSGGSTYYADSVKGRFTISRDNAKNTVYLQMNSLKPEDTAVYYCAVAVKNWVKLNYWGQGTQVTVSS”, the “polyreactivity (PSR sort gate)” value is “high polyreactivity”.

With “QVQLVESGGGLVQAGGSLRLSCAASGSTFRYYAMGWYRQAPGKVRELVAAITSSGGSTYYADSVKGRFTISRDNEKNTVYLQMNSLKPEDTAVYYCNAVSSYREDDYWGQGTQVTVSS”, the “polyreactivity (PSR sort gate)” value is recorded as “high polyreactivity”.

“QVQLVESGGGLVQAGGSLRLSCAASGSTFRYYAMGWYRQSPGKEREFVAAITKVGSRTSYADSVKGRFTISRDNAKNTVYLQMNSLKPEDTAVYYCATRDSPRTKNGYYYWGQGTKVTVSS”: the “polyreactivity (PSR sort gate)” value is listed as “high polyreactivity”.

For “QVQLVESGGGLVQAGGSLRLSCAASGSTFRYYGMGWYRQAPGKERELVATINRGGRTYYADSVKGRFTISRDNAKNTVYLQMNSLKPEDTAVYYCAADYYYYVACVHDDYWGQGTQVTGSS”, the “polyreactivity (PSR sort gate)” value was “low polyreactivity”.

Turning to “QVQLVESGGGLVQAGGSLRLSCAASGSTFRYYVMGWSRQAPGKEMELVAGISYRGGTTYYADSVKGRFTISRDNAKITVYLQMNSMKPEDTAVYYCNAGYTLYHYYSWYAFGYWGQGTQGTVSS”, the “polyreactivity (PSR sort gate)” value is “low polyreactivity”.

As to “QVQLVESGGGLVQAGGSLRLSCAASGSTFRYYVMGWYRQAPGKERELVAAISRTGGRTYYADSVKGRFTISRDNAKNTVYLQMNSLKPEDTAVYYCAARNVTTKRYYYWGQGTQVTVSS”, the “polyreactivity (PSR sort gate)” value is “high polyreactivity”.

As to “QVQLVESGGGLVQAGGSLRLSCAASGSTFRYYVMGWYRQAPGKERELVARITSAASTNYADSVKGRFTISRDNAKNTVYLQMNSLNPEDTAVYYCAARKYGSRYRLKYDYWGQGTQVTVSS”, the “polyreactivity (PSR sort gate)” value is “high polyreactivity”.

For the sequence “QVQLVESGGGLVQAGGSLRLSCAASGSTFSAYAMGWYRQAPGKERELVAAISKRGGSTYYADSVKGRFTISRDNAKNTVYLQMNSLKPEDTAVYYCNKESLYREFDYWGQGTQVTVSS”, the “polyreactivity (PSR sort gate)” value was “low polyreactivity”.

For “QVQLVESGGGLVQAGGSLRLSCAASGSTFSAYGMGWYRQAPGKEMELVASISWNGGSTYYADSVQGRFTISGDNAKNTVYLQMNSLKPEDTAVYYCNTELVGHPDWLSWRYYYWGQGTQVTVSS”, the “polyreactivity (PSR sort gate)” value is listed as “low polyreactivity”.

As for “QVQLVESGGGLVQAGGSLRLSCAASGSTFSAYTMGWDRQAPGKERELVAAIRFDGGRTYYADSVKGRFTISRDNAKNTVYLQMNSLKPEDTAVYYCPAWQSYSYDYWGQGTQLTVSS”, the “polyreactivity (PSR sort gate)” value is “high polyreactivity”.

On to “QVQLVESGGGLVQAGGSLRLSCAASGSTFSAYTMGWYRQAPGKERELVAAISYRGGSTYYADSVKGRFTISRDNAKNTVYLQMNSRKPEDTAVYYCAAERKHYGLYDYWGQGTQVTVSS”, for which the “polyreactivity (PSR sort gate)” value was “low polyreactivity”.

With “QVQLVESGGGLVQAGGSLRLSCAASGSTFSCNSMGWYRQAPGKERELVAAITSGGSTNYADSVKGRFTISRDNAKNTVFLQMNSLKPEDTAVYYCAKRYGYRRYYTASDYWGQGTQVTVSS”, the “polyreactivity (PSR sort gate)” value is recorded as “low polyreactivity”.

As to “QVQLVESGGGLVQAGGSLRLSCAASGSTFSDNAMGWYRQAPGKERELVAAISSGGSTNYADSVKGRFTISRDNAKNTVYLQMNSLKPEDTAVYYCAREYYSRRYDYWGQGTQVTVSS”, the “polyreactivity (PSR sort gate)” value is “low polyreactivity”.

Regarding “QVQLVESGGGLVQAGGSLRLSCAASGSTFSDYAMGWYRPAPGKERELVAAISSDGSTYYADSVKGRFTISRDNANNTVYLQMNILKPEDTAVYYCAKDVILVWPYATGRDYCGQGTQVTVSS”, the “polyreactivity (PSR sort gate)” value is “low polyreactivity”.

On to “QVQLVESGGGLVQAGGSLRLSCAASGSTFSDYAMGWYRQAPGKERELVAAISSSGGRTYYADSVKGRFTISRDNAKNTVYLQMNSLKPEDTAVYYCNAYYIYILYGGQTYTGDYWGQGTQVTVSS”, for which the “polyreactivity (PSR sort gate)” value is “high polyreactivity”.

With “QVQLVESGGGLVQAGGSLRLSCAASGSTFSDYAMGWYRQEPGKERELVAAISSDGSTYYADSVKGRYTISRDNAKNTVYLQMNSLKPEDTAVYYCAKDVILVWPYATGRDFWGQGTQVTVSS”, the “polyreactivity (PSR sort gate)” value is given as “low polyreactivity”.

On to “QVQLVESGGGLVQAGGSLRLSCAASGSTFSFNAKGWYRQAPGKARELVAAITGGDGTNYADSVKGRFTISRDNAKNTVYLQMNSLKPEDTAVNYCAADQWGSTEDYWFTYGYWGQGTQVTVSS”, for which the “polyreactivity (PSR sort gate)” value is given as “low polyreactivity”.

Take “QVQLVESGGGLVQAGGSLRLSCAASGSTFSFYAMGWYRQAPGKERELVAAIDSGGRTKYADSVKGRFTISRDNAKNTVYLLMNSLKPEDTAVYYCAAVFRGWWLYDYWGQGTQVTVSS”: the “polyreactivity (PSR sort gate)” value is “low polyreactivity”.

Turning to “QVQLVESGGGLVQAGGSLRLSCAASGSTFSFYAMGWYRQAPGKERELVAAITWTTGSTYADSVKGRFTISRDNAKNTVYLQMNSLKPEDTAVYYCAAKKFRRSRDSYYWGPGTQVTVSS”, the “polyreactivity (PSR sort gate)” value is “high polyreactivity”.

On to “QVQLVESGGGLVQAGGSLRLSCAASGSTFSFYAMGWYRQAPGKERELVAVFTRGGSTYYADSVKGRFTISRDNAKNTVYLQMNSLKPEDTAVYYCAARSTSNGQRSLHYGYWGQGTQVTVSS”, for which the “polyreactivity (PSR sort gate)” value is on record as “low polyreactivity”.

Consider “QVQLVESGGGLVQAGGSLRLSCAASGSTFSFYAMGWYRQAPGQERELVAAIRAGTRTYYADSVKGRFTISRDNAKNTVYLQMNSLKPEDTAVYYCAATRRRYPYYYWGQGTQVTVSS”, for which the “polyreactivity (PSR sort gate)” value is “high polyreactivity”.

As to “QVQLVESGGGLVQAGGSLRLSCAASGSTFSGKAMGWYRQAPGKERELVAAITSSGGSTYYADSVKGRFTISRDNAKNTVYLQMNSLKPEDTAVYYCAAKSRRTRRSYYWGQGTQVTVSS”, the “polyreactivity (PSR sort gate)” value is listed as “high polyreactivity”.

As to “QVQLVESGGGLVQAGGSLRLSCAASGSTFSGNAMGWYRQAPGKEMEMVAAISGRGGSTYYADSVKGRFTISRDNAKNTVFLQMKSLKPEDTAVYYCAKRRNTRGAYGYWGQGTQVTVSS”, the “polyreactivity (PSR sort gate)” value is on record as “high polyreactivity”.

With “QVQLVESGGGLVQAGGSLRLSCAASGSTFSGNAMGWYRQAPGKEREFVAAIFSDGSTYYADSVKGRFTISRDNAKNTVYLQMNSLKPEDTAVYYCAAAWYEPATQTGYFEFDYWGQGTQVTVSS”, the “polyreactivity (PSR sort gate)” value was “low polyreactivity”.

For “QVQLVESGGGLVQAGGSLRLSCAASGSTFSGNAMGWYRQAPGKERELVAAINSVRTYYADSVKGRFTISRDNAKNTVYLQMNSLKPEDTAVYYCAARQGYSSRYPAKGYYWGQGTQVTVSS”, the “polyreactivity (PSR sort gate)” value was “high polyreactivity”.

For “QVQLVESGGGLVQAGGSLRLSCAASGSTFSGNAMGWYRQAPGKERELVAAISQSGGSTYYADSVKGRFTISRDNAKNTVYLQMNSLKPEDTAVYYCNRLYYFLARRMDSWGQGTQVTVSS”, the “polyreactivity (PSR sort gate)” value is “high polyreactivity”.

On to “QVQLVESGGGLVQAGGSLRLSCAASGSTFSGYAMGWYRQAPGKARELVAAISWRGVRTYYADSVKGRFTISRDNAKNTVYLQMNSLKPEDTAVSYCAAVRYITKEFSWGQGTQVTVSW”, for which the “polyreactivity (PSR sort gate)” value is given as “high polyreactivity”.

Take “QVQLVESGGGLVQAGGSLRLSCAASGSTFSGYAMGWYRQAPGKERELVAAISTDDTYYADSVKGRFTISRDNPKNTVYLQKNSLKPEDTAVYYCAADYLGYYGLEEHWGQGTQVTVSS”: the “polyreactivity (PSR sort gate)” value is on record as “high polyreactivity”.

As to “QVQLVESGGGLVQAGGSLRLSCAASGSTFSGYAMGWYRQAPGKERELVAAISWSGGRTYYADSVKGRFTISRDNAKNTVYLQMNSLKPEDTAVYYCAAVRKSAYEYWGQGTQVTVSS”, the “polyreactivity (PSR sort gate)” value was “high polyreactivity”.

Regarding “QVQLVESGGGLVQAGGSLRLSCAASGSTFSGYAMRWYRPAPGKERELVAAISWSGGSTYYADSVKGRFTISRDNAKNTVYLQMNSLKPEDTSVNYCNALESTIRGYPYDYWGQGTQVTVSS”, the “polyreactivity (PSR sort gate)” value is “low polyreactivity”.

As for “QVQLVESGGGLVQAGGSLRLSCAASGSTFSHNAMGWYRQAPGKERELVAAISTSGSRTYYADSVKGRFTISRDNAKNSVYLQMNSLKPEDTAVYYCNTVPIYYSGYDYWGQGTQVTVSS”, the “polyreactivity (PSR sort gate)” value is “high polyreactivity”.

The values above are taken from the nanobody polyreactivity screen of Harvey et al. (2022).
